Blank lines part the entries; values can stand above or below the binder they belong to.
What was measured:
[1] = target: T1, recombinant hPD-1 (construct not stated) (human, UniProt Q15116 25-167, limits assumed); assay: BLI, supernatants
T1 construct: also called huPD-1; Human PD1
From the text: In order to remove an N-glycosylation site present in the CDR-L1, mutations were inserted in the CDR-L1 of 21A08. The first asparagine ([…], N) in CDR-L1, was replaced by a serine (Ser, S), Glutamine (Gln, Q), or Alanine (Ala, A).

hPD-1 His-tagged = target: T2, hPD-1 His-tagged (human, UniProt Q15116 25-167); assay: SPR, Ab captured, PD-1 analyte
T2 construct: also called recombinant hPD-1 (AcroBio)
T2 sequence (Q15116 25-167 limits assumed): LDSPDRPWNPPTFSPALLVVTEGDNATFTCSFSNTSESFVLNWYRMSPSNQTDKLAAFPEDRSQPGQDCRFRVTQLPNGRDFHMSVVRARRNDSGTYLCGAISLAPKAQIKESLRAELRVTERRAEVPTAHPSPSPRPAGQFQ
Method: (§1) 10 mM glycine (pH 1.5) as regeneration buffer was injected to flow cells following every dissociation phase.

[2] = target: T3, cynoPD-1 His (AcroBiosystems PD1-C5223) (cynomolgus monkey, UniProt B0LAJ3 25-170); assay: SPR, Ab captured, PD-1 analyte
T3 construct: also called cPD-1; cynomolgus PD-1 His-tagged
T3 sequence (B0LAJ3 entry or part of it limits assumed): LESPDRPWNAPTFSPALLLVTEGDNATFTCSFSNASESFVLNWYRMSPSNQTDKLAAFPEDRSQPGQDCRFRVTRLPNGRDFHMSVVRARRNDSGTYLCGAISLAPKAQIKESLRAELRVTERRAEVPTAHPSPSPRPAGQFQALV
Method: as §1

T1 sequence (Q15116 25-167 limits assumed): as the sequence (Q15116 25-167 limits assumed) above

- Kd [1]: 3.39 nM
- koff [1]: 0.000267 s⁻¹
B1: 21A08Q (antibody, V domains shown)
VH: EVQLLESGGGLVQPGGSLRLSCAASGFTFSINAMTWVRQAPGKGLEWVSTISGSGFSTYYADSLKGRFTISRDNSKNTLYLQMNSLRAEDTAVYYCAKEVYGDYWGQGTLVTVSS
VL: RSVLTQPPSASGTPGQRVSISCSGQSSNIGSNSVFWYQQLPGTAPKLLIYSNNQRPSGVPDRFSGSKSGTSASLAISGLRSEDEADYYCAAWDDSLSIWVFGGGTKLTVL
notes: position not given

- Kd [1]: 1.81 nM
- koff [1]: 0.000181 s⁻¹
- Kd (hPD-1 His-tagged): < 0.16 nM
- koff (hPD-1 His-tagged): < 1e-05 s⁻¹
- kon (hPD-1 His-tagged): 63000 M⁻¹ s⁻¹
- Kd [2]: 1.7 nM
- koff [2]: 9.6e-05 s⁻¹
- kon [2]: 56000 M⁻¹ s⁻¹
B2: 21A08A (antibody, V domains shown)
VH: B1 VH
VL: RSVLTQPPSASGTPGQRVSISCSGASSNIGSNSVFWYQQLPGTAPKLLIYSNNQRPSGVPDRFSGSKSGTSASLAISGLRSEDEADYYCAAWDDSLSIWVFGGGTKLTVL
notes: position not given

- Kd [1]: 2.47 nM
- koff [1]: 0.000184 s⁻¹
B3: 21A08S (antibody, V domains shown)
VH: B1 VH
VL: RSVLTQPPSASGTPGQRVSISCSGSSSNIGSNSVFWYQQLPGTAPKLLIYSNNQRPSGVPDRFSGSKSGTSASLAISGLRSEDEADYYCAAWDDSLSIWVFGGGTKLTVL
notes: position not given; tested as supernatant

Reference: patent publication US20260207767A1 (ANAVEON, published 2026)
